Each sequence was assayed against T1, Fur (Escherichia coli O157:H7 (EDL933?)) (UniProt P0A9B1) (assay: EMSA). Conditions: BirA EMSA: 1 mM Tris-HCl pH 7.5, 0.1 mM EDTA, 0.2 mM DTT, 5 mM MgCl2, 10 mM KCl, 20 uM biotin, 1 mM ATP (DIG Gel Shift Kit); Fur EMSA: Invitrogen E33075 kit ….
T1 sequence: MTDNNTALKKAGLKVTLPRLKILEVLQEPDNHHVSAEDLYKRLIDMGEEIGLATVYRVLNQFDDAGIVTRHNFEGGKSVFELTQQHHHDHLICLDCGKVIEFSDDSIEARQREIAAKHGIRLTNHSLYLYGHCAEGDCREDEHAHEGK
With “GACATTAAACTTGATCCTGGCGAGGCCAACAATATACAGCTTATTAATGATGCAAACACACCGCATAATAAAATTATAATAGAAAATGAATATATTAGAATAACTTTAGACCCATTAGAGCAAATAAGTATTTTATTGAATTCATTTAAAGATAATTATCTTAGCATTATTCAGGAATGATGATATGTCTCAATTAATGACCATTGGCTCACAGCCAATATTTTTAATTATTGTATTTTTTCTGTTATCATTACTGCCAA (double strand) [LEE Box5 fragment]” the binding was “no binding”. With “AACAGAAGACTGGTTGCTGGAGAGTCCTTCTCGGGTATCGATTGTCGAAGATAAACATATTTATTATTTTCATTTATTGAAAGACTTTTTTACATCATTACCAGATGCTTGCTTTATTGATAGTGAGCAGAGAGAGAATGCATTATTAATGATTGGTAAAGTTATCGACTATAAGGAGGAAATTATTTGATATTAATTACTCAATAATTTTTTTGTTTTCCTGAGAAAAATTATCAAGAGGTATATAGATGGATACATCAAATGCAACATCCGTTGTTAATGTGAGTGCGAGTTCTTC (double strand) [LEE Box1 fragment]” the binding was “no binding”. With “GTTGGCGGCATCATTGTATCCGATGAAGATAATTGCTCTAGTTTATCAAATTGCTTATCGAGCAAAGAGGCGAGAGTATGTTGCATTATTGCTTTTGACATGTTTGCGCGATGATTATTATCTTTATGAAAAATTTGGCAAAGATACCACTTCTTATTAGACAGGAAAATACCCATTTGTTTATATTCGTTACTAACGGCCAGGATATTGCAGAGTCTGATAAATGTATCTGTTGGAACCTGACGAAAATCACCACTAAGCTCAATATATAGAACCCAGTAGTTTCCAAAATCG (double strand) [LEE Box4 fragment]” the binding was “no binding”.

Reference: PMC4382993
